How the values were obtained:
AphA (Vibrio cholerae) = target: T1, AphA (Vibrio cholerae) (UniProt Q9X399); assay: EMSA; settings: 40 mM Tris acetate pH 7.9, 50 mM KCl, 5 mM MgCl2, 500 uM DTT, 12.5 ug/ml herring sperm DNA; EMSA 15 min at 37 C
T1 sequence: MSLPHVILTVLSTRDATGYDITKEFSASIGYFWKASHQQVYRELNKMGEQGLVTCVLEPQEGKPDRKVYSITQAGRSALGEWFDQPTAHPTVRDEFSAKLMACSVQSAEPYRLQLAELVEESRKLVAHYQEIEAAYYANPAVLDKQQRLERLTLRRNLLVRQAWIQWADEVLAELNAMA

CRP (Vibrio cholerae) = target: T2, CRP (Vibrio cholerae) (UniProt O34015); assay: EMSA; settings: 40 mM Tris acetate pH 7.9, 50 mM KCl, 5 mM MgCl2, 500 uM DTT, 12.5 ug/ml herring sperm DNA; EMSA 15 min at 37 C
T2 sequence: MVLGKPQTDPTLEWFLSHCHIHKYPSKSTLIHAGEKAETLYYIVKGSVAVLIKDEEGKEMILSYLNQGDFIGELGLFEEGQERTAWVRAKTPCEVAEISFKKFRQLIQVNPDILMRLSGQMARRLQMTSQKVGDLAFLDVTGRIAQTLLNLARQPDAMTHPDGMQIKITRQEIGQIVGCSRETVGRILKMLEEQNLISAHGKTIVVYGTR

Sequence | binding (AphA (Vibrio cholerae)) | binding (CRP (Vibrio cholerae))
AATTCCATTTCCCAAAATCCTTTGCAAACCGTGAGAGGATGATGAATCAACTTGCATAGATGCTAACAGCTATCAAAAATGGCGTTGTTTTATAAAGAGAAGTAATGGAAATGA / AGCTTCATTTCCATTACTTCTCTTTATAAAACAACGCCATTTTTGATAGCTGTTAGCATCTATGCAAGTTGATTCATCATCCTCTCACGGTTTGCAAAGGATTTTGGGAAATGG [VC0857-VC0858 intergenic region] | binds | 
AATTCTAGAGGAGCAACAAAAAATTGACGCTGTGATACTGGTCTCATAATCTGGCGCAAAAGTATTGCATCGATGTGAGATAAGTCCAGACTTATTTCTCTTCGTAAACTATCATTAGCTTCATAAAACAAGCA / AGCTTGCTTGTTTTATGAAGCTAATGATAGTTTACGAAGAGAAATAAGTCTGGACTTATCTCACATCGATGCAATACTTTTGCGCCAGATTATGAGACCAGTATCACAGCGTCAATTTTTTGTTGCTCCTCTAG [tfoX promoter wild type] | binds | binds
